Our source for the Km values is patent publication US9284541B2, “Methods and compositions for protein labeling using lipoic acid ligases” (Massachusetts Institute of Technology, priority 2007, dated 2016).

Substrate in this data set: [N-]=[N+]=NCCCCCCCC(=O)O
The experiment in a line: Measurement of LplA-probe ligation kinetics (HPLC). Particulars: other: ligation to E2p, 200 nM LplA; pH 7.0; 30.0 °C. The format is biochemical, E. coli. The protocol:
To measure the kcat for LplA ligation of lipoic acid to E2p, 50 nM LplA was combined with 200 μM E2p, 750 μM lipoic acid, […], and 2 mM magnesium acetate in 25 mM sodium phosphate pH 7.0. The reaction was initiated with addition of 1 mM ATP to the pre-warmed (30° C.) mixture. The reaction was incubated at 30° C., and 90 μL aliquots were removed every 5 minutes and quenched with 50 mM EDTA (final concentration). Samples were analyzed by C18 reverse-phase HPLC as described in the “Methods” section. Measurements were performed in triplicate. A calibration curve was obtained that correlated the ratio of integrated HPLC peak areas (E2p:E2p-probe) to the actual protein ratio, in order to compensate for differences in the extinction coefficients of E2p and lipoylated E2p. The amount of product obtained at each time point was plotted against time, to obtain the Vmax of the reaction. From this, the kcat value was obtained using the equation Vmax=kcat [E]total.
90 μL aliquots were removed from the 30° C. reactions at 5 minutes intervals, up to 30 minutes, and quenched with 50 mM EDTA (final concentration). Samples were analyzed by HPLC as above. The amount of product obtained at each time point was plotted against time, to obtain the initial velocity for each concentration of azide 7. […] From the Vmax value, kcat was calculated using the equation Vmax=kcat [E]total.

B1: E. coli LplA (Escherichia coli K-12) (protein)
chain: STLRLLISDSYDPWFNLAVEECIFRQMPATQRVLFLWRNADTVVIGRAQNPWKECNTRRMEEDNVRLARRSSGGGAVFHDLGNTCFTFMAGKPEYDKTISTSIVLNALNALGVSAEASGRNDLVVKTVEGDRKVSGSAYRETKDRGFHHGTLLLNADLSRLANYLNPDKKKLAAKGITSVRSRVTNLTELLPGITHEQVCEAITEAFFAHYGERVEAEIISPNKTPDLPNFAETFARQSSWEWNFGQAPAFSHLLDERFTWGGVELHFDVEKGHITRAQVFTDSLNPAPLEALAGRLQGCLYRADMLQQECEALLVDFPEQEKELRELSAWMAGAVR
Consider B1, for which the Km amounted to 127 ± 11 µM.

The Km is the concentration of substrate that gives half-maximal velocity.
